T1: myelin oligodendroglial glycoprotein (MOG) peptide on I-Ab (mouse)
T1 peptide: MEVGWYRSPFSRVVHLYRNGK

B1: 1MOG9 (TCR)
alpha TRAV12D-3*01 TRAJ17*01 CDR3: CALSAANSAGNKLTF
beta TRBV13-2*01 TRBJ2-4*01 CDR3: CASGDWGGEDTLYF
B2: 1MOG23 (TCR)
alpha TRAV12D-2*02 TRAJ18*01 CDR3: CALSDRGSALGRLHF
beta TRBV19*01 TRBJ2-3*01 CDR3: CASSIADSSAETLYF
B3: 2MOG10 (TCR)
alpha TRAV14-2*01 TRAJ21*01 CDR3: CAAASRIYNVLYF
beta TRBV5*01 TRBJ2-5*01 CDR3: CASNGLGEEDTQYF

Tests used:
[1] = target: T1, myelin oligodendroglial glycoprotein …; test: cytokine release
[2] = target: T1, myelin oligodendroglial glycoprotein …; test: in vivo

Binder	binding result [1]	binding result [2]
B1	recognises	–
B2	–	recognises
B3	recognises	–

Source: PMC2615687 (2008)
